Laboratory results from US20240376208A1 (AFFIMED, published 2024).

Legend:
[1] = molecular target: T1, BCMA on MM.1S target cells (UniProt Q02223 1-184, limits assumed); test: cell-based or functional assay
T1 sequence (looked up): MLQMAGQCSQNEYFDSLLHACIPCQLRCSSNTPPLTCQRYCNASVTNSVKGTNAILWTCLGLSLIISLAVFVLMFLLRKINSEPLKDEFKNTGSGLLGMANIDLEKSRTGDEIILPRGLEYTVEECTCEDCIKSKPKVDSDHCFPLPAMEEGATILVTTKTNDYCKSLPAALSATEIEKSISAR

[2] = molecular target: T2, biotinylated dimeric CD16A antigen (human, UniProt P08637 17-208, limits assumed, biotinylated (site not stated)); test: ELISA, biotinylated dimeric CD16A titrated on coated construct
T2 construct: Soluble antigen; also called soluble CD16A antigen
T2 sequence (P08637 17-208 limits assumed): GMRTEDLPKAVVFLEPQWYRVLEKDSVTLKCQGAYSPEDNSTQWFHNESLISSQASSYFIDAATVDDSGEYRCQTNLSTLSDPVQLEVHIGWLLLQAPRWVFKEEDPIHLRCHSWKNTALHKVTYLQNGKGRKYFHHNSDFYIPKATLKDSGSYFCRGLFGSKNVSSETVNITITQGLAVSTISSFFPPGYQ
Procedure: (§1) For the capturing approach, 96-well ELISA plates (Immuno Maxisorp, Nunc) were coated overnight at 4° C. with His-tagged human EGFR or BCMA extracellular domain at concentrations of 3.0 or 0.4 μg/mL, respectively. After blocking with 3% (w/v) skimmed milk powder dissolved in phosphate buffered saline (PBS), antigen coated plates were used for capturing of different multivalent bispecific engagers at concentrations of 3-5 μg/mL in PBS containing 0.3% (w/v) skimmed milk powder. After washing three times with 300 μL per well of PBS containing 0.1% (v/v) Tween 20, plates were incubated with serial dilutions of biotinylated dimeric or monomeric CD16A antigen in PBS containing 0.3% (w/v) skimmed milk powder for 1.5 h at room temperature. After washing, plates were incubated with the detection conjugate Streptavidin HRP, 1:10,000 diluted in PBS containing 0.3% (w/v) skimmed milk powder for 1 h followed by washing and incubation with tetramethylbenzidine substrate (Seramun) for 1-2 min. Reaction was stopped by addition of 0.5 M H₂SO₄ (100 μL/well). Absorbance was measured at 450 nm using a multiwell plate reader, plotted and EC₅₀ values were determined by fitting a nonlinear regression model to sigmoidal dose-response curves (four parameters logistic fit) using GraphPad Prism software.
(§2) Concentration dependent binding of antibody constructs to coated recombinant CD16A antigen, or of soluble monomeric or dimeric CD16 antigen variants to coated or target antigen captured antibody constructs was analyzed in ELISA. Half maximal binding concentrations (EC₅₀) were determined by fitting a nonlinear regression model to sigmoidal dose-response curves (four parameters logistic fit) using GraphPad Prism software.

[3] = molecular target: T3, recombinant CD16A 158F fused to monomeric human Fc (human, UniProt P08637 17-208); test: ELISA, construct titrated on coated CD16A 158F fused to monomeric human Fc
T3 construct: also called recombinant CD16 antigen variant; not shown: monomeric human Fc
T3 sequence (P08637 17-208): as the sequence (P08637 17-208 limits assumed) above
Procedure: To assess binding of EGFR/CD16 or BCMA/CD16 antibodies to coated antigen in ELISA, 96-well ELISA plates (Immuno Maxisorp, Nunc) were coated overnight at 4° C. with recombinant CD16 antigen variants fused to monomeric human Fc at a concentration of 1.5 μg/mL in 100 mM carbonate-bicarbonate buffer. After blocking with 3% (w/v) skimmed milk powder dissolved in phosphate buffered saline (PBS) serial dilutions of bispecific antibody constructs were incubated on the antigen coated plates for 1.5 h at room temperature. […] After washing, plates were incubated with tetramethylbenzidine substrate (Seramun) for 1-2 min. Reaction was stopped by addition of 0.5 M H₂SO₄ (100 μL/well). Absorbance was measured at 450 nm using a multiwell plate reader, plotted and EC₅₀ values were determined by fitting a nonlinear regression model to sigmoidal dose-response curves (four parameters logistic fit) using GraphPad Prism software.
as §2

[4] = molecular target: recombinant CD16A 158V fused to monomeric human Fc (human, UniProt P08637 17-208); test: ELISA, construct titrated on coated CD16A 158V fused to monomeric human Fc
Chain of recombinant CD16A 158V fused to monomeric human Fc (P08637 17-208 F176V): as the sequence (P08637 17-208 limits assumed) above, with F160V counted along it

[5] = molecular target: T4, biotinylated monomeric CD16A antigen (human, UniProt P08637 17-208, limits assumed, biotinylated (site not stated)); test: ELISA, biotinylated monomeric CD16A titrated on construct captured by coated His-tagged human BCMA extracellular domain
T4 construct: Soluble antigen; also called soluble CD16A antigen
T4 sequence (P08637 17-208 limits assumed): as the sequence (P08637 17-208 limits assumed) above
Procedure: as §1, §2

[6] = molecular target: T4, biotinylated monomeric CD16A antigen; test: ELISA, biotinylated monomeric CD16A titrated on coated construct
Procedure: as §1, §2

[7] = molecular target: T2, biotinylated dimeric CD16A antigen; test: ELISA, biotinylated dimeric CD16A titrated on construct captured by coated His-tagged human BCMA extracellular domain
Procedure: as §1, §2

[8] = molecular target: CD38 on primary human NK cells (human, UniProt P28907 1-300); test: cell-based or functional assay

B1: Bi-scDb-Fc_01 (bispecific antibody, human IgG1)
chain: EVQLLESGGGLVQPGGSLRLSCAASGFTFSNYDMAWVRQAPGKGLEWVSSISTRGDITSYRDSVKGRFTISRDNSKNTLYLQMNSLRAEDTAVYYCARQDYYTDYMGFAYWGQGTLVTVSSGGGGSGGGGSGGGGSAIQMTQSPSSLSASVGDRVTITCRASEDIYNGLAWYQQKPGKAPKLLIYGASSLQDGVPSRFSGSGSGTEFTLTISSLQPEDEATYYCAGPHKYPLTFGGGTKVEIKEPKSCDKTHTCPPCPAPEFEGGPSVFLFPPKPKDTLMISRTPEVTCVVVAVSHEDPEVKFNWYVDGVEVHNAKTKPREEQYNSTYRVVSVLTVLHQDWLNGKEYKCKVSNKALPAPIEKTISKAKGQPREPQVYTLPPSREEMTKNQVSLTCLVKGFYPSDIAVEWESNGQPENNYKTTPPVLDSDGSFFLYSKLTVDKSRWQQGNVFSCSVMHEALHNHYTQKSLSLSPGGGGGSGGGGSSYVLTQPSSVSVAPGQTATISCGGHNIGSKNVHWYQQRPGQSPVLVIYQDNKRPSGIPERFSGSNSGNTATLTISGTQAMDEADYYCQVWDNYSVLFGGGTKLTVLGGSGGSQVQLVQSGAEVKKPGESLKVSCKASGYTFTSYYMHWVRQAPGQGLEWMGAIEPMYGSTSYAQKFQGRVTMTRDTSTSTVYMELSSLRSEDTAVYYCARGSAYYYDFADYWGQGTLVTVSSGGSGGSGGSGGSGGSGGSSYVLTQPSSVSVAPGQTATISCGGHNIGSKNVHWYQQRPGQSPVLVIYQDNKRPSGIPERFSGSNSGNTATLTISGTQAMDEADYYCQVWDNYSVLFGGGTKLTVLGGSGGSQVQLVQSGAEVKKPGESLKVSCKASGYTFTSYYMHWVRQAPGQGLEWMGAIEPMYGSTSYAQKFQGRVTMTRDTSTSTVYMELSSLRSEDTAVYYCARGSAYYYDFADYWGQGTLVTVSS
notes: Anti-BCMA scFv - silenced Fc - anti-CD16A scDb
In the case of B1, the “EC50 [pM], 4 h calcein-release cytotoxicity on BCMA+ MM.1S target cells, NK cells E:T 5:1” value [1] is reported as 1.1 pM, the “Emax [%], 4 h calcein-release cytotoxicity on BCMA+ MM.1S target cells, NK cells E:T 5:1” value [1] is reported as 51.2% and the EC50 [2] is reported as 1.14 nM. It also gave an EC50 [3] of 0.24 nM, an EC50 [4] of 0.17 nM and an EC50 [5] of 1.72 nM. For the same binder, the EC50 [6] was 3.4 nM and the EC50 [7] was 0.64 nM.

B2: IgAb_51 (antibody, V domains shown)
VH: EVQLLESGGGLVQPGGSLRLSCAVSGFTFNSFAMSWVRQAPGKGLEWVSAISGSGGGTYYADSVKGRFTISRDNSKNTLYLQMNSLRAEDTAVYFCAKDKILWFGEPVFDYWGQGTLVTVSS
VL: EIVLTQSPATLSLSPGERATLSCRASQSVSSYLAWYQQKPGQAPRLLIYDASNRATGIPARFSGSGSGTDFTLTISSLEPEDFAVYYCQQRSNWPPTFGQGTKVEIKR
For B2, the “EC50 [pM], 4 h calcein-release NK cell fratricide assay, E:T 1:1” value [8] was 66.5 pM and the “Emax [%], 4 h calcein-release NK cell fratricide assay, E:T 1:1” value [8] was 68.6%.

B3: aBi-scDb-Fc_02 (bispecific antibody)
chain 1: DKTHTCPPCPAPEFEGGPSVFLFPPKPKDTLMISRTPEVTCVVVAVSHEDPEVKFNWYVDGVEVHNAKTKPREEQYNSTYRVVSVLTVLHQDWLNGKEYKCKVSNKALPAPIEKTISKAKGQPREPQVYTLPPSREEMTKNQVSLTCLVKGFYPSDIAVEWESNGQPENNYKTTPPVLDSDGSFFLTSKLTVDKSRWQQGNVFSCSVMHEALHNHYTQKSLSLSPGGGGGSGGGGSSYVLTQPSSVSVAPGQTATISCGGHNIGSKNVHWYQQRPGQSPVLVIYQDNKRPSGIPERFSGSNSGNTATLTISGTQAMDEADYYCQVWDNYSVLFGGGTKLTVLGGSGGSQVQLVQSGAEVKKPGESLKVSCKASGYTFTSYYMHWVRQAPGQGLEWMGAIEPMYGSTSYAQKFQGRVTMTRDTSTSTVYMELSSLRSEDTAVYYCARGSAYYYDFADYWGQGTLVTVSSGGSGGSGGSGGSGGSGGSSYVLTQPSSVSVAPGQTATISCGGHNIGSKNVHWYQQRPGQSPVLVIYQDNKRPSGIPERFSGSNSGNTATLTISGTQAMDEADYYCQVWDNYSVLFGGGTKLTVLGGSGGSQVQLVQSGAEVKKPGESLKVSCKASGYTFTSYYMHWVRQAPGQGLEWMGAIEPMYGSTSYAQKFQGRVTMTRDTSTSTVYMELSSLRSEDTAVYYCARGSAYYYDFADYWGQGTLVTVSSAAAGSHHHHHH
chain 2: EVQLLESGGGLVQPGGSLRLSCAASGFTFSNYDMAWVRQAPGKGLEWVSSISTRGDITSYRDSVKGRFTISRDNSKNTLYLQMNSLRAEDTAVYYCARQDYYTDYMGFAYWGQGTLVTVSSGGGGSGGGGSGGGGSAIQMTQSPSSLSASVGDRVTITCRASEDIYNGLAWYQQKPGKAPKLLIYGASSLQDGVPSRFSGSGSGTEFTLTISSLQPEDEATYYCAGPHKYPLTFGGGTKVEIKDKTHTCPPCPAPEFEGGPSVFLFPPKPKDTLMISRTPEVTCVVVAVSHEDPEVKFNWYVDGVEVHNAKTKPREEQYNSTYRVVSVLTVLHQDWLNGKEYKCKVSNKALPAPIEKTISKAKGQPREPQVYTLPPSREEMTKNQVSLYCLVKGFYPSDIAVEWESNGQPENNYKTTPPVLDSDGSFFLYSKLTVDKSRWQQGNVFSCSVMHEALHNHYTQKSLSLSPGGGGGSGGGGSSYVLTQPSSVSVAPGQTATISCGGHNIGSKNVHWYQQRPGQSPVLVIYQDNKRPSGIPERFSGSNSGNTATLTISGTQAMDEADYYCQVWDNYSVLFGGGTKLTVLGGSGGSQVQLVQSGAEVKKPGESLKVSCKASGYTFTSYYMHWVRQAPGQGLEWMGAIEPMYGSTSYAQKFQGRVTMTRDTSTSTVYMELSSLRSEDTAVYYCARGSAYYYDFADYWGQGTLVTVSSGGSGGSGGSGGSGGSGGSSYVLTQPSSVSVAPGQTATISCGGHNIGSKNVHWYQQRPGQSPVLVIYQDNKRPSGIPERFSGSNSGNTATLTISGTQAMDEADYYCQVWDNYSVLFGGGTKLTVLGGSGGSQVQLVQSGAEVKKPGESLKVSCKASGYTFTSYYMHWVRQAPGQGLEWMGAIEPMYGSTSYAQKFQGRVTMTRDTSTSTVYMELSSLRSEDTAVYYCARGSAYYYDFADYWGQGTLVTVSSAAAGSHHHHHH
With B3 the “EC50 [pM], 4 h calcein-release cytotoxicity on BCMA+ MM.1S target cells, NK cells E:T 5:1” value [1] was 2.3 pM, the “Emax [%], 4 h calcein-release cytotoxicity on BCMA+ MM.1S target cells, NK cells E:T 5:1” value [1] was 62.8% and the EC50 [2] was 1 nM. The EC50 [3] was 0.45 nM, the EC50 [4] was 0.34 nM and the EC50 [5] was 2.36 nM. For the same binder, the EC50 [6] was 3.84 nM and the EC50 [7] was 1.25 nM.
